The results in this text go back to patent publication US20180155451A1 (published 2018).

Test [1] concerns the target T1, FcγRIIIa extracellular domain with C-terminal His tag (human, UniProt P08637 17-208).
T1 construct: extracellular domain; also called FcgRIIIa; 3a; not shown: His tag at the C terminus
As to the kind of experiment: SPR (Biacore), captured antibody, FcγR as analyte; relative to GpH7-A5/GpH7-B3/GpL16-k0 = 100. On the procedure:
(§1) Analysis of interaction between objective antibody and the FcγR was carried out using Biacore T100 (GE Healthcare). HBS-EP+ (GE Healthcare) was used as the running buffer, and the measurement temperature was set to 25° C. Chips produced by immobilizing the antigen peptide by the amine coupling method to a Series S Sencor Chip CM5 (GE Healthcare), or alternatively, chips produced by allowing preliminarily biotinylated antigen peptides to interact with and immobilize onto a Series S Sensor Chip SA (certified) (GE Healthcare) were used. Antibodies of interest were captured onto an antigen peptide-immobilized chip, and allowed to interact to each FcγR diluted with running buffer. To regenerate and repeatedly use the chip, the antibodies captured on the chip were washed off by reacting 10 mM glycine-HCl, pH 1.5.
(§2) The FcγR-binding activity of each antibody was assessed primarily using as an indicator the FcγR-binding activity and dissociation constant for FcγR.

Test [2] has as its target T2, FcγRIIb extracellular domain with C-terminal His tag (human, UniProt P31994 43-217).
T2 construct: extracellular domain; also called FcgRIIb; 2b; not shown: His tag at the C terminus
T2 sequence (looked up): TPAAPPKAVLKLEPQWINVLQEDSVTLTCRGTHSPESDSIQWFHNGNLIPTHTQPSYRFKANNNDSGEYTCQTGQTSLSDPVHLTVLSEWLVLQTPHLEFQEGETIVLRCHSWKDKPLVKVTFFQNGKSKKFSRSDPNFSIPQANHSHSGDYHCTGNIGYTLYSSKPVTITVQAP
The test is described as above. On the procedure:
as §1, §2

T1 sequence (P08637 17-208): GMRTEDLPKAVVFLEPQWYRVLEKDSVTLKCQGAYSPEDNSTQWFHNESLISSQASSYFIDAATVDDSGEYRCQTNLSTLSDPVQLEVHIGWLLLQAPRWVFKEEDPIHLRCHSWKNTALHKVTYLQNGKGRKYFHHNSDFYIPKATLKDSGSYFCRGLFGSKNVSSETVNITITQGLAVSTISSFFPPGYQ

B1: GpH7-A5/GpH7-B3 variant L235_04F/GpL16-k0 (heterodimerized antibody, He Ab) (antibody, human IgG1, kappa)
heavy 1: not shown
heavy 2: not shown
light: DIVMTQSPLSLPVTPGEPASISCQASESLVHSNRNTYLHWYLQKPGQSPQLLIYKVSNRFSGVPDRFSGSGSGTDFTLKISRVEAEDVGVYYCSQNTHVPPTFGQGTKVEIERTVAAPSVFIFPPSDEQLKSGTASVVCLLNNFYPREAKVQWKVDNALQSGNSQESVTEQDSKDSTYSLSSTLTLSKADYEKHKVYACEVTHQGLSSPVTKSFNRGEC
notes: Anti-glypican-3 IgG1; the alteration is in the GpH7-B3 chain only; also called L235F
For the molecule B1, the “He/Con_3a (IIIa binding)” value in test [1] was 79.1 % of HeCon Ab. Further, the “He/Con_2b (IIb binding)” value in test [2] is 118 % of HeCon Ab.

B2: GpH7-A5/GpH7-B3 variant L235_20W/GpL16-k0 (heterodimerized antibody, He Ab) (antibody, human IgG1, kappa)
heavy 1: not shown
heavy 2: not shown
light: DIVMTQSPLSLPVTPGEPASISCQASESLVHSNRNTYLHWYLQKPGQSPQLLIYKVSNRFSGVPDRFSGSGSGTDFTLKISRVEAEDVGVYYCSQNTHVPPTFGQGTKVEIERTVAAPSVFIFPPSDEQLKSGTASVVCLLNNFYPREAKVQWKVDNALQSGNSQESVTEQDSKDSTYSLSSTLTLSKADYEKHKVYACEVTHQGLSSPVTKSFNRGEC
notes: Anti-glypican-3 IgG1; the alteration is in the GpH7-B3 chain only; also called L235W
On to B2, for which the “He/Con_3a (IIIa binding)” value in test [1] was 76.4 % of HeCon Ab. Further, the “He/Con_2b (IIb binding)” value in test [2] was 147 % of HeCon Ab.

B3: GpH7-A5/GpH7-B3 variant L235_16H/GpL16-k0 (heterodimerized antibody, He Ab) (antibody, human IgG1, kappa)
heavy 1: not shown
heavy 2: not shown
light: DIVMTQSPLSLPVTPGEPASISCQASESLVHSNRNTYLHWYLQKPGQSPQLLIYKVSNRFSGVPDRFSGSGSGTDFTLKISRVEAEDVGVYYCSQNTHVPPTFGQGTKVEIERTVAAPSVFIFPPSDEQLKSGTASVVCLLNNFYPREAKVQWKVDNALQSGNSQESVTEQDSKDSTYSLSSTLTLSKADYEKHKVYACEVTHQGLSSPVTKSFNRGEC
notes: Anti-glypican-3 IgG1; the alteration is in the GpH7-B3 chain only; also called L235H
With B3, the “He/Con_3a (IIIa binding)” value in test [1] was 59.1 % of HeCon Ab. In addition, in test [2], the “He/Con_2b (IIb binding)” value is 76.9 % of HeCon Ab.

B4: GpH7-A5/GpH7-B3 variant L235_09D/GpL16-k0 (heterodimerized antibody, He Ab) (antibody, human IgG1, kappa)
heavy 1: not shown
heavy 2: not shown
light: DIVMTQSPLSLPVTPGEPASISCQASESLVHSNRNTYLHWYLQKPGQSPQLLIYKVSNRFSGVPDRFSGSGSGTDFTLKISRVEAEDVGVYYCSQNTHVPPTFGQGTKVEIERTVAAPSVFIFPPSDEQLKSGTASVVCLLNNFYPREAKVQWKVDNALQSGNSQESVTEQDSKDSTYSLSSTLTLSKADYEKHKVYACEVTHQGLSSPVTKSFNRGEC
notes: Anti-glypican-3 IgG1; the alteration is in the GpH7-B3 chain only; also called L235D
With B4, the “He/Con_3a (IIIa binding)” value in test [1] is 91.6 % of HeCon Ab. For the same molecule, in test [2], the “He/Con_2b (IIb binding)” value was 106 % of HeCon Ab.

B5: GpH7-A5/GpH7-B3 variant P238_02A/GpL16-k0 (heterodimerized antibody, He Ab) (antibody, human IgG1, kappa)
heavy 1: not shown
heavy 2: not shown
light: DIVMTQSPLSLPVTPGEPASISCQASESLVHSNRNTYLHWYLQKPGQSPQLLIYKVSNRFSGVPDRFSGSGSGTDFTLKISRVEAEDVGVYYCSQNTHVPPTFGQGTKVEIERTVAAPSVFIFPPSDEQLKSGTASVVCLLNNFYPREAKVQWKVDNALQSGNSQESVTEQDSKDSTYSLSSTLTLSKADYEKHKVYACEVTHQGLSSPVTKSFNRGEC
notes: Anti-glypican-3 IgG1; the alteration is in the GpH7-B3 chain only; also called P238A
In the case of B5, the “He/Con_3a (IIIa binding)” value in test [1] is 31.4 % of HeCon Ab. Further, the “He/Con_2b (IIb binding)” value in test [2] was 57.4 % of HeCon Ab.

B6: GpH7-A5/GpH7-B3 variant P238_04F/GpL16-k0 (heterodimerized antibody, He Ab) (antibody, human IgG1, kappa)
heavy 1: not shown
heavy 2: not shown
light: DIVMTQSPLSLPVTPGEPASISCQASESLVHSNRNTYLHWYLQKPGQSPQLLIYKVSNRFSGVPDRFSGSGSGTDFTLKISRVEAEDVGVYYCSQNTHVPPTFGQGTKVEIERTVAAPSVFIFPPSDEQLKSGTASVVCLLNNFYPREAKVQWKVDNALQSGNSQESVTEQDSKDSTYSLSSTLTLSKADYEKHKVYACEVTHQGLSSPVTKSFNRGEC
notes: Anti-glypican-3 IgG1; the alteration is in the GpH7-B3 chain only; also called P238F
With B6, the “He/Con_3a (IIIa binding)” value in test [1] is 46.7 % of HeCon Ab. The “He/Con_2b (IIb binding)” value in test [2] is 312 % of HeCon Ab.

B7: GpH7-A5/GpH7-B3 variant P238_01G/GpL16-k0 (heterodimerized antibody, He Ab) (antibody, human IgG1, kappa)
heavy 1: not shown
heavy 2: not shown
light: DIVMTQSPLSLPVTPGEPASISCQASESLVHSNRNTYLHWYLQKPGQSPQLLIYKVSNRFSGVPDRFSGSGSGTDFTLKISRVEAEDVGVYYCSQNTHVPPTFGQGTKVEIERTVAAPSVFIFPPSDEQLKSGTASVVCLLNNFYPREAKVQWKVDNALQSGNSQESVTEQDSKDSTYSLSSTLTLSKADYEKHKVYACEVTHQGLSSPVTKSFNRGEC
notes: Anti-glypican-3 IgG1; the alteration is in the GpH7-B3 chain only; also called P238G
Take B7: the “He/Con_3a (IIIa binding)” value in test [1] is 33 % of HeCon Ab. Further, the “He/Con_2b (IIb binding)” value in test [2] is 56 % of HeCon Ab.

B8: GpH7-A5/GpH7-B3 variant L235_15Y/GpL16-k0 (heterodimerized antibody, He Ab) (antibody, human IgG1, kappa)
heavy 1: not shown
heavy 2: not shown
light: DIVMTQSPLSLPVTPGEPASISCQASESLVHSNRNTYLHWYLQKPGQSPQLLIYKVSNRFSGVPDRFSGSGSGTDFTLKISRVEAEDVGVYYCSQNTHVPPTFGQGTKVEIERTVAAPSVFIFPPSDEQLKSGTASVVCLLNNFYPREAKVQWKVDNALQSGNSQESVTEQDSKDSTYSLSSTLTLSKADYEKHKVYACEVTHQGLSSPVTKSFNRGEC
notes: Anti-glypican-3 IgG1; the alteration is in the GpH7-B3 chain only; also called L235Y
On to B8, for which the “He/Con_3a (IIIa binding)” value in test [1] was 80.6 % of HeCon Ab. Besides, in test [2], the “He/Con_2b (IIb binding)” value is 149 % of HeCon Ab.
